Data published in PMC5086636 (Toxins, 2016).
Where “and” joins values, the source holds several entries; their conditions need not be identical. Equal values may be shown once.

Experiments:
Synaptotagmin-II 8-61 = Synaptotagmin-II 8-61 (UniProt P29101); test: ITC; conditions: cited from earlier work
[1] = biological target: T1, Syt-II_(40-60) peptide (amino acid residues 40-60 of the mouse synaptotagmin protein) (mouse); test: BLI; Octet Red; […]; 25 °C; PBS + 0.02% Tween 20, 1% BSA, 0.05% azide; […]; conditions: one partner purified
T1 peptide: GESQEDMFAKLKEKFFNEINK

[2] = biological target: Synaptotagmin-II 40-60, P29101
Synaptotagmin-II 40-60, P29101, sequence (P29101 40-60): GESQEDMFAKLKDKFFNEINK

Synaptotagmin-II 8-61, sequence (P29101 8-61): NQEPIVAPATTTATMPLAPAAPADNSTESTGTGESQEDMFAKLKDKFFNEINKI

For BoNT/B 858-1291 (from UniProt P10844), the Kd (Synaptotagmin-II 8-61) is listed as 34 nM.

B1: Botulinum neurotoxin type B (natural protein)
chain: MPVTINNFNYNDPIDNNNIIMMEPPFARGTGRYYKAFKITDRIWIIPERYTFGYKPEDFNKSSGIFNRDVCEYYDPDYLNTNDKKNIFLQTMIKLFNRIKSKPLGEKLLEMIINGIPYLGDRRVPLEEFNTNIASVTVNKLISNPGEVERKKGIFANLIIFGPGPVLNENETIDIGIQNHFASREGFGGIMQMKFCPEYVSVFNNVQENKGASIFNRRGYFSDPALILMHELIHVLHGLYGIKVDDLPIVPNEKKFFMQSTDAIQAEELYTFGGQDPSIITPSTDKSIYDKVLQNFRGIVDRLNKVLVCISDPNININIYKNKFKDKYKFVEDSEGKYSIDVESFDKLYKSLMFGFTETNIAENYKIKTRASYFSDSLPPVKIKNLLDNEIYTIEEGFNISDKDMEKEYRGQNKAINKQAYEEISKEHLAVYKIQMCKSVKAPGICIDVDNEDLFFIADKNSFSDDLSKNERIEYNTQSNYIENDFPINELILDTDLISKIELPSENTESLTDFNVDVPVYEKQPAIKKIFTDENTIFQYLYSQTFPLDIRDISLTSSFDDALLFSNKVYSFFSMDYIKTANKVVEAGLFAGWVKQIVNDFVIEANKSNTMDKIADISLIVPYIGLALNVGNETAKGNFENAFEIAGASILLEFIPELLIPVVGAFLLESYIDNKNKIIKTIDNALTKRNEKWSDMYGLIVAQWLSTVNTQFYTIKEGMYKALNYQAQALEEIIKYRYNIYSEKEKSNINIDFNDINSKLNEGINQAIDNINNFINGCSVSYLMKKMIPLAVEKLLDFDNTLKKNLLNYIDENKLYLIGSAEYEKSKVNKYLKTIMPFDLSIYTNDTILIEMFNKYNSEILNNIILNLRYKDNNLIDLSGYGAKVEVYDGVELNDKNQFKLTSSANSKIRVTQNQNIIFNSVFLDFSVSFWIRIPKYKNDGIQNYIHNEYTIINCMKNNSGWKISIRGNRIIWTLIDINGKTKSVFFEYNIREDISEYINRWFFVTITNNLNNAKIYINGKLESNTDIKDIREVIANGEIIFKLDGDIDRTQFIWMKYFSIFNTELSQSNIEERYKIQSYSEYLKDFWGNPLMYNKEYYMFNAGNKNSYIKLKKDSPVGEILTRSKYNQNSKYINYRDLYIGEKFIIRRKSNSQSINDDIVRKEDYIYLDFFNLNQEWRVYTYKYFKKEEEKLFLAPISDSDEFYNTIQIKEYDEQPTYSCQLLFKKDEESTDEIGLIGIHRFYESGIVFEEYKDYFCISKWYLKEVKRKPYNLKLGCNWQFIPKDEGWTE
With B1 the “KD of the first, rapid step (2:1 heterogeneous ligand model)” value [1] was 90 nM and the “KD of the second, slow step (2:1 heterogeneous ligand model)” value [1] was 20 nM.

B2: BoNT/B, P10844 (protein)
chain: PVTINNFNYNDPIDNNNIIMMEPPFARGTGRYYKAFKITDRIWIIPERYTFGYKPEDFNKSSGIFNRDVCEYYDPDYLNTNDKKNIFLQTMIKLFNRIKSKPLGEKLLEMIINGIPYLGDRRVPLEEFNTNIASVTVNKLISNPGEVERKKGIFANLIIFGPGPVLNENETIDIGIQNHFASREGFGGIMQMKFCPEYVSVFNNVQENKGASIFNRRGYFSDPALILMHELIHVLHGLYGIKVDDLPIVPNEKKFFMQSTDAIQAEELYTFGGQDPSIITPSTDKSIYDKVLQNFRGIVDRLNKVLVCISDPNININIYKNKFKDKYKFVEDSEGKYSIDVESFDKLYKSLMFGFTETNIAENYKIKTRASYFSDSLPPVKIKNLLDNEIYTIEEGFNISDKDMEKEYRGQNKAINKQAYEEISKEHLAVYKIQMCKSVKAPGICIDVDNEDLFFIADKNSFSDDLSKNERIEYNTQSNYIENDFPINELILDTDLISKIELPSENTESLTDFNVDVPVYEKQPAIKKIFTDENTIFQYLYSQTFPLDIRDISLTSSFDDALLFSNKVYSFFSMDYIKTANKVVEAGLFAGWVKQIVNDFVIEANKSNTMDKIADISLIVPYIGLALNVGNETAKGNFENAFEIAGASILLEFIPELLIPVVGAFLLESYIDNKNKIIKTIDNALTKRNEKWSDMYGLIVAQWLSTVNTQFYTIKEGMYKALNYQAQALEEIIKYRYNIYSEKEKSNINIDFNDINSKLNEGINQAIDNINNFINGCSVSYLMKKMIPLAVEKLLDFDNTLKKNLLNYIDENKLYLIGSAEYEKSKVNKYLKTIMPFDLSIYTNDTILIEMFNKYNSEILNNIILNLRYKDNNLIDLSGYGAKVEVYDGVELNDKNQFKLTSSANSKIRVTQNQNIIFNSVFLDFSVSFWIRIPKYKNDGIQNYIHNEYTIINCMKNNSGWKISIRGNRIIWTLIDINGKTKSVFFEYNIREDISEYINRWFFVTITNNLNNAKIYINGKLESNTDIKDIREVIANGEIIFKLDGDIDRTQFIWMKYFSIFNTELSQSNIEERYKIQSYSEYLKDFWGNPLMYNKEYYMFNAGNKNSYIKLKKDSPVGEILTRSKYNQNSKYINYRDLYIGEKFIIRRKSNSQSINDDIVRKEDYIYLDFFNLNQEWRVYTYKYFKKEEEKLFLAPISDSDEFYNTIQIKEYDEQPTYSCQLLFKKDEESTDEIGLIGIHRFYESGIVFEEYKDYFCISKWYLKEVKRKPYNLKLGCNWQFIPKDEGWTE
In the case of B2, the Kd [2] is reported as 20 nM and 90 nM.
